Experimental data as given in IntAct's records for PubMed 22892567.

Target: cbx3_mouse Cbx3 (UniProt P23198)
Sequence (P23198 whole entry): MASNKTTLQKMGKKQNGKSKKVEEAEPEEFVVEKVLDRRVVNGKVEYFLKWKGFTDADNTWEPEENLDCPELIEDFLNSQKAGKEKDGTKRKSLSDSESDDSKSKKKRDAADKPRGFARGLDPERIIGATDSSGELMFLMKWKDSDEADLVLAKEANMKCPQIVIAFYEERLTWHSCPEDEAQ

| effect of a mutation on the interaction | Substance |
| --- | --- |
| disrupting interaction strength | Voltage-dependent L-type calcium channel subunit beta-4 (Rattus norvegicus (Rat)) (from UniProt D4A055) P220A |
| disrupting interaction | Voltage-dependent L-type calcium channel subunit beta-4 (Rattus norvegicus (Rat)) (from UniProt D4A055) V222A |
